{"source": "paper PMC7786333", "about": "“Integration of diverse DNA substrates by a casposase can be targeted to R-loops in vitro by its fusion to Cas9”", "binders": {"B1": {"name": "sgran50 + dsran50 (mixed)", "RNA": "GGUAGACGAUUACAUUGCUACAGUUUUAGAGCUAGAAAUAGCAAGUUAAAAUAAGGCUAGUCCGUUAUCAACUUGAAAAAGUGGCACCGAGUCGGUGCUU", "DNA 1": "CAACGTCATAGACGATTACATTGCTACATGGAGCTGTCTAGAGGATCCGA", "DNA 2": "TCGGATCCTCTAGACAGCTCCATGTAGCAATGTAATCGTCTATGACGTTG"}}, "target": "Cas9 (Streptococcus pyogenes, UniProt Q99ZW2 1-1368)", "sequence (Q99ZW2 whole entry, the tested form may be a part)": "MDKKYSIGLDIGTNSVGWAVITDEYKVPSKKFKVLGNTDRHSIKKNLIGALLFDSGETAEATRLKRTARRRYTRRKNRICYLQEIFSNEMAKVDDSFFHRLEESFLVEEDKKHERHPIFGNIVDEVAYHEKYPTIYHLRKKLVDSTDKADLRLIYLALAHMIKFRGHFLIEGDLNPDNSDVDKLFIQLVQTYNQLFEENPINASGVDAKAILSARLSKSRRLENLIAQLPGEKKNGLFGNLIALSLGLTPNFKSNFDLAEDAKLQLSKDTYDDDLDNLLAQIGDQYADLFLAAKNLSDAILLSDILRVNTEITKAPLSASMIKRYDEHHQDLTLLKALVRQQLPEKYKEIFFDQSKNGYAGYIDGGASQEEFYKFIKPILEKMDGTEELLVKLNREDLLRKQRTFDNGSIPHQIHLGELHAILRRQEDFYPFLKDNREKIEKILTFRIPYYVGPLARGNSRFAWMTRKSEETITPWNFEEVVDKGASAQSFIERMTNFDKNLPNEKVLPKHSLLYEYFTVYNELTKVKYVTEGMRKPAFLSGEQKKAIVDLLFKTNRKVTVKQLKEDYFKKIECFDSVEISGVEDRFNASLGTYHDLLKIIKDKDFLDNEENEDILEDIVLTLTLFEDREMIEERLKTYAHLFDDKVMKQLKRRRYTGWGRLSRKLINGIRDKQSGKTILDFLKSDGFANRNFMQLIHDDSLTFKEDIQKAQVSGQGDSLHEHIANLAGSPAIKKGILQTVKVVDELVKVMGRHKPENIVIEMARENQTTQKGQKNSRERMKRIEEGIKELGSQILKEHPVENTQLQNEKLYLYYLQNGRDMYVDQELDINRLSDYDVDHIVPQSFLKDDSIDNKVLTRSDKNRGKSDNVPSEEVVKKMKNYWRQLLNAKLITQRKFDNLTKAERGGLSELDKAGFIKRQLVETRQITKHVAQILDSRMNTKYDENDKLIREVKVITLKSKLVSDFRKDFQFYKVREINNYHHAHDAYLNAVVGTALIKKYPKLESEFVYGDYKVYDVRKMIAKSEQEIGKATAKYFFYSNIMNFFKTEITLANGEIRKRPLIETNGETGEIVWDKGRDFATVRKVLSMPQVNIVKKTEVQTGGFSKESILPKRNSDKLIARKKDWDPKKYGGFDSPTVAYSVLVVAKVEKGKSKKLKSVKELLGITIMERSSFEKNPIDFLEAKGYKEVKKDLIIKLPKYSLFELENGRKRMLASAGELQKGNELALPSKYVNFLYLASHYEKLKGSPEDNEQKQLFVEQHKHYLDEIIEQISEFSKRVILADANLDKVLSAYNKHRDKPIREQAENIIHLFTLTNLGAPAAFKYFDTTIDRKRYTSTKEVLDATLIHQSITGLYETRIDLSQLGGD", "experiment": "R-loop formation gel assay (deproteinised); sgran50; 5 mM EDTA; efficiency similar to fusions; 25 mM Tris pH 7.5, 106 mM KCl, 50 ug/ml BSA, 5 mM EDTA, 2 mM DTT, 9% glycerol, 37 C; 150 nM protein, 300 nM sgRNA, 25 nM Cy5-dsran50, 75 nM unlabelled MW12 dsDNA competitor; 8% acrylamide TBE gel", "conditions": "protein: recombinant, tags: His6, label: 5'-Cy5 on ssran50 strand (strand 2), blunt 50 bp DNA target plus sgRNA, PAM TGG", "data": [{"binder": "B1", "values": [{"measurement": "binding result", "value": "binds"}]}]}
